Test results reported in PMC3959803 (Experimental biology and medicine (Maywood, N.J.), 2009).

Biological target: T1, His-p55 (recombinant His-tagged erythrocyte p55/MPP1) (human, UniProt Q00013-1 1-466)
T1 sequence (looked up): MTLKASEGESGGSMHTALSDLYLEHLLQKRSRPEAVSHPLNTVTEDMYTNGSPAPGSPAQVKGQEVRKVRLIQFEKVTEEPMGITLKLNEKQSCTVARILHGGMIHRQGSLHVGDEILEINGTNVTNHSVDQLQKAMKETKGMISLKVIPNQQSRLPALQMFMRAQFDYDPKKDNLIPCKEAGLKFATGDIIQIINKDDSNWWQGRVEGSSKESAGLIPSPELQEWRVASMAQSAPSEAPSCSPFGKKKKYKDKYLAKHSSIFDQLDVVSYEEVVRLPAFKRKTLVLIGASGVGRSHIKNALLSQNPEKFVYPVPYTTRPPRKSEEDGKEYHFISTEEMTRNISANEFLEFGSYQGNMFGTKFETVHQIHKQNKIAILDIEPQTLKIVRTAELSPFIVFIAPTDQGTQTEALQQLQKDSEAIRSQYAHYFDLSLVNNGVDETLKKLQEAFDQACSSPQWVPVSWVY
Assay: SPR

Kd: 3.7 nM
B1: MBP-NF2-N (merlin N-terminal half, aa 1-311, including the FERM domain) (domain or fragment, human, UniProt P35240 1-311, looked up)
chain: MAGAIASRMSFSSLKRKQPKTFTVRIVTMDAEMEFNCEMKWKGKDLFDLVCRTLGLRETWFFGLQYTIKDTVAWLKMDKKVLDHDVSKEEPVTFHFLAKFYPENAEEELVQEITQHLFFLQVKKQILDEKIYCPPEASVLLASYAVQAKYGDYDPSVHKRGFLAQEELLPKRVINLYQMTPEMWEERITAWYAEHRGRARDEAEMEYLKIAQDLEMYGVNYFAIRNKKGTELLLGVDALGLHIYDPENRLTPKISFPWNEIRNISYSDKEFTIKPLDKKIDVFKFNSSKLRVNKLILQLCIGNHDLFMRRR
